# Laboratory results taken from US20220259605A1 (OXFORD UNIVERSITY INNOVATION, published 2022).
# T1: human CEACAM5 protein (SinoBiological) (human, UniProt P06731 35-685)
# T1 construct: also called human CEA protein; carcinoembryonic antigen
# T1 sequence: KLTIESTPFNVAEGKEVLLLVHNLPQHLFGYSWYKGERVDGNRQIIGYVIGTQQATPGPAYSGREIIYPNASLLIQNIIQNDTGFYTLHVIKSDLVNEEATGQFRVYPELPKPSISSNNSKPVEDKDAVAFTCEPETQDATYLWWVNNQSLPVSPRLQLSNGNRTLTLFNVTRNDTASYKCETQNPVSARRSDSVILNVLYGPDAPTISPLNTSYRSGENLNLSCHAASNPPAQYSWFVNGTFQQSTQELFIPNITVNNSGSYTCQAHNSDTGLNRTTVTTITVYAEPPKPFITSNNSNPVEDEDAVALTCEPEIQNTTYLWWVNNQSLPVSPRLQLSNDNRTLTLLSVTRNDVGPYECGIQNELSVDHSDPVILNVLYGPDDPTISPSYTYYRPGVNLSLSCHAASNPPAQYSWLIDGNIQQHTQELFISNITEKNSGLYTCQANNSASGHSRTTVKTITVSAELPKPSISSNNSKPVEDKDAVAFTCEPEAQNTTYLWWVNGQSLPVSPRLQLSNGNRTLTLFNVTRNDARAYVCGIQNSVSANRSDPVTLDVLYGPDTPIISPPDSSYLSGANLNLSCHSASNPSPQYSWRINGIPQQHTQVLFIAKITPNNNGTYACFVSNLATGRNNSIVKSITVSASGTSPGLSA
# Molecular target: T1, human CEACAM5 protein (SinoBiological)
# Assay: biological agglutination test
binder,measurement,value
"C43 anti-CEA nanobody, surface-displayed on E. coli through the pNV intimin display system (VHH, domain: β-intimin domain; also called pNVC43; pNVC43_sfGFP) VHH: EVQLVESGGGLVQAGGSLTLSCTSSTLTFTPYRMGWYRQTPGKQRDLVADISPGDGSTKNYAGFAQGRFTISRDNIKNTVYLQMNDLKPEDTAVYYCNTYVAFVGRARTWGQGTQVTVSS",binding result,binds
